We go through 14 sequences from the DeepSol protein solubility set.

This series is described as follows: soluble on expression in E. coli; label from the status in PepcDB or PDB records.
Take “MPRLYLGKIPYNARERDVERFLKGYGKINNISMKYGFAFVDFEDSRDAEDACHDLDGKTMEGSSMRLVVEMARGKPRGNDRHGSRSPRRRSRSPRRRSRTPPRRRSRSRDRKRSRRSRSRSSSRSRSPVRESRRRSESRSPSPKRDLKREASRSRSPLPAKDRSRTRSGSPPKNGGDRKRSVSRGRSHSRDGSNRSVSRSPSPGSPKD”: the “soluble on expression in E. coli” value was “not soluble”. To “MFKRVGIFVALVTLSLIFNQPATAGRTVEDFQVWGNITALGNFGFVNPGNPDLKKFRWWMEGQGRFGNDSSQFTQAIIRPGLGYAITDKIIIWAGYAWIPSDEPLVPKSGLPFDEHRIWQQVTWADEFSFGKLSLRSRFEQRFFDHNAPVSGSDDVAYRFRQLVKLAIPVAMIDPNLTFIIQNELFIGLNTVSNPGFISRGFDQNRAFVGLGYKVHQNATVELGYMNQFIDRRHNPRPDQMMHNFAVNLFLNF” belongs “not soluble”; to “MSLKAIQFDLSIPKYALSKAMGKMNSSLYVESPFSCLQLRDVEKPALPNDHWVEIKVKYGGICGSDLNLIFLNDSPATSPFVSFPFTLGHEMVGTISKARKSVTNLQVGQRVVIDPLLSCEVRGITPVCSECANGNYNLCHHMNDGDIAPGLLTGTCKDTGGSWGRYLVAHQSQVISLPSSVDDDNGVLVEPFACALHAVLQNRPKPSDTVFVIGSGVIGICVIAAIRALEIPCKIVTLAKHPFQAELAKQFGADEIVFLSRKRDYVTAVAESFNANVLHPVFGEPIVHGGADIVYECVGNRKSLHDSLRFARKGGKVVLIGLASFIDNLDMTMIWLNELEVKGSFTYGMEDWQGGKKRTLQIAVDLIADGKVDLSPLITHRFPLEAYREALATAANKKKGQTMKVVFEEGHHHHHH”, “not soluble”; to “MKDQLGFRIVLCSAVFIILTQNRALADLDSESHEVNSESVGEEQWEMVQRKGMQFTLNGQPFYVNGFNTYWMMTLAADNSTRGKVTEVFQQASAVGMTVGRTWAFNDGQWRALQKSPSVYDEEVFKALDFVLSEARKYKIRLILSLVNNWDAYGGKAQYVKWGNASGLNLTSDDDFFTNPTLRNFYQSHVRTVLNRVNTFTNITYKNDPTIFAWELMNEPRCPSDPSGDKLQSWIQEMAVFVKSLDAKHLVEIGLEGFYGPSAPARTRFNPNPYAAQVGTDFIRNNQVLGIDFASVHVYPDSWISPAVSNSFLEFTSSWMQAHVEDAEMYLGMPVLFTEFGVSAHDPGFNTSFRDMMLNTVYKMTLNSTRKGGAGAGSLVWQVFPQGAEFMDDGYAVYLTRAHTASKIISLQSKRLAIFNSLCSWRCRWGCKKKNQTALDALLSHDEL”, “soluble”. To “MGSDKIHHHHHHMNKLNFKGSVMLNPTPVVLVTSKDKSQNLNVFTVGWVSTVCTKDPIIAMGIRPERLSYQYIKESCECVINLPTTSMVKIVDYCGVVSGRRVDKIKHFSLPLNDGVSISTPSLENCPVALECKVKSVTPLGTHDLFLLQVLNVKIDETLLDKNNKICFNKANLMCYNHGEYYGLNSKPIGSFGFSVKKKTKKIHRRKKGD” belongs “not soluble”; to “MSEKRLTMKETIRRKALSLGFCAVGFAAADTLNEAMKEYRAMIDEGRHGEMGYLETGLEARANPELLLPGVKSVLSAALPWPAPAKPGAISGYAVIPDYHRVVGELLKELLDFIRSICDHPINGQICVDSSPVLEKEWAEAAGIGRTGKNTLLIVPGYGSRVFLGELLLDLELEPDTPLDWNPCGDCTACLDACPTGALNTPGKLDARRCISYLTIELKRDFTDEEAAMTNGWFYGCDHCLDACPHNANIEATGYPGFEQKKELVNLTPEKALELTHSQFRKRFAGTPALRLGLRRLKRNARAAVANKSQSKS”, “not soluble”; to “MVRTYSPAFREAAVRMMISHREEYKCSRWAAAVAISEKIGASPNSIYAWFKKSTFETIESDDFDLAYYKERIERLESEIQRLQKTIKFLRTTIIILSNSLHFG”, “not soluble”. To “MSLVVVSDVFVSVRGRVMLNVEAMNMTESVGNYVKHRRVPVVLPDAKYTTYFVPAISGESIAHGFQEVLAEVGKKNGLKVCKLCEKGIFLKSTNENVFKESFSSDPPKDDFEFEKTVIENCIVEDVGGFLYAPRAGGNVKRTSNFYTGYMIPVRESIEGAVIEPQLHSRYALGTPFVEGGQGQMIYYVELSSAVYTFSFDLDTRYIGRTTFSYEKAGTEVGKRSERINAALEALKKFLIEFAFGAKKTRFLPVMEWDSLVVAVSDDVWTVPSPYTAGYIDNARKKKEKVNFNTKLFVYPEGGSFEEVVVEAIEEAKERAGKEGHHHHHH” belongs “soluble”; to “MSLESSDDAPLPTDVPKDAAEALVCFLTQHVRALMSPHADPVPSCPRCGGTQIHKKGYAPLQTGPLPTYQCEGCDHYFSRLSGTPLSGHRIRRSAEELITMLPQAIGCPEAARRLGVMERTIRNTVRMFRRWVLELDPSGHHERHIRLGGRFTAVRDQAPPVVDEQIAYEDVALTAKLLEDFETIHSNKHFPMPDCPACGADRLVTKGTFSGFARFKCASCGKQFNRRTGTPFTRNRKVYERQRALIRYLGLPLSITQLAEIVGGDHGNVARLIREFRERCDQLDPTGQLSHRIRAGARPAEDTPCIQCGARHVRFDVRGITPGKCAVCGRLISMRRAIIERDGVLEVGPWQWAEQLQQEGHHHHHH”, “not soluble”; to “MGSDKIHHHHHHMSTILLPKTQHLVVFQEVIRSGSIGSAAKELGLTQPAVSKIINDIEDYFGVELVVRKNTGVTLTPAGQLLLSRSESITREMKNMVNEISGMSSEAVVEVSFGFPSLIGFTFMSGMINKFKEVFPKAQVSMYEAQLSSFLPAIRDGRLDFAIGTLSAEMKLQDLHVEPLFESEFVLVASKSRTCTGTTTLESLKNEQWVLPQTNMGYYSELLTTLQRNGISIENIVKTDSVVTIYNLVLNADFLTVIPCDMTSPFGSNQFITIPVEETLPVAQYAAVWSKNYRIKKAASVLVELAKEYSSYNGCRRRQLIEVG”, “not soluble”.

As to “VVTSVADENVASRIASWGTGPAPDPRLDYAHAHLKGRRGRSPARPNAPIGARSFAVGRKICRVERFTLLEHGFVGHALHRVPCAGLVALVMSACSLAVCREVGNYAQRRVGRFAFFEQTFVRHALTPRCSRTDSKTSYTQLNRICKFPPHWV”, the “soluble on expression in E. coli” value is “not soluble”. Take “ACTQPSDWVPPAKNDALVIALKKVIGGRLSDAFHIRDKLQRRDAIAAVKDDVIQQLAGRLEVEGWNLAELLKEFGELEYRTMRDALLDTKVRIDGRSLEAVRP”: the “soluble on expression in E. coli” value is recorded as “not soluble”. “MGSDKIHHHHHHEIFSEITTDNYYQNSNNIYAALVNNYAKAFSTGWSDARYFLQEVTADQLMIPTRGKHGYNGGEYVRLHEHKWTVEENFVYNGWAAPFQGIALCNNTLSDFENLDFSTFKLTEETKNEYIAELRALRVWNYMFLIDFFRHVPIVTDIEEVKAQSTPLEVFNFMESELLAILPDLPKNRGVSRFDQAGVASILVRLYLNAEKWIGISKYDECEQMAQAILDGKYGEYSIDPDYRGPFRSGINGYRSKENIMEFAIKKNYFEASWLYNMWMHYQDRYSLDNDWQGWNGGNLAPSRDLYGNLYQDKLGMPFEKFPDGDIRKKAFRVISNDGDYEGFFLMGTQYKFDYEKGYGFTDEVITGTEEYNGKPLVYVDQVGRFSEGETGLAKGSHVIYGEENTGYRLIKFPWLPQSKDLFQMNSIPEIRLAEIYYSLAECKYRSGDKIGAARLLDVVRKRYYKAEDWSKFSYESNISKLTDDEFVDELGREFIGERHRRIDLIRWNRFSEGAWWDKTPDATNQDVFPIPYRALNANPLLKQTTAGF”: the “soluble on expression in E. coli” value is on record as “not soluble”. To “MGSDKIHHHHHHMHMQSPIQRRKSRQIHVGHVPVGGDAPIAVQSMTNTDTLDVDATVAQIRQLEAAGADIVRVSVPTMDAAEAFGQIKRQVSVPLVADIHFDYKIALRVAELGVDCLRINPGNIGREDRVRAVVDAARHHGIPIRIGVNAGSLEKDLQKKYGEPTPEALVESAMRHIEHLDRLDFQDFKVSVKASDVFMAVAAYRQLAQRIDQPLHLGITEAGGLRSGTVKSSIGLGLLLMEGIGDTIRVSLAADPVEEIKVGYDMLKSLRLRSKGINFIACPSCSRQNFDVIGTMNALEERLDDIMTPLDVSVIGCVVNGPGEAKESDIGLTGGDPANLVYIDGKPASKLRNDHLVDDLEALIRDKVREKEARERDTIAREA” belongs “not soluble”.
